Source: patent US7977317B2, “Compositions and methods for modulating blood-brain barrier transport” (Raptor Pharmaceutical Inc., priority 2001, dated 2011)

Legend:
BBCEC monolayers = assay: Transcytosis across BBCEC monolayers (in vitro BBB model); format: cell-based, bovine
Description: FIG. 10 assesses the ability of several agents to interfere with p97 transyctosis. FIG. 10a, transcytosis of I125-P97 was compared in the presence of cold p97 (5 micromolar), Lf (5 micromolar), and Tf (5 micromolar). […] FIG. 10c, RAP, a known poly-peptide inhibitor of the LDL-Receptor family was applied to the cells (25 micrograms/ml).
FIG. 11 examines the accumulation and transcytosis of p97. FIG. 11a, of [^125I]-p97, [^125I]-BSA and [^125I]-holo-transferrin one hour after i.v. injection. The radioactivity in brain was compared between the three compounds. (n=3); FIG. 11b, Accumulation of p97 and transferrin into the mouse brain parenchyma. In situ brain perfusion was performed with human [^125I]-p97 or [^125I]-holo-transferrin at a final concentration of 10 nM via a catheter inserted in the right common carotid artery. The volume of distribution (VD) of [^125I]-proteins were obtained in the whole brain homogenate (white bars), in brain capillaries (solid bars) and in brain parenchyma (hatched bars) after isolation of the right hemisphere and capillary depletion. Results were obtained for p97 (n=10) and for holo-transferrin (n=6); FIG. 11c, Transcytosis of p97 across BBCEC monolayers. Transcytosis experiments were performed 37° C. (open circles) and 4° C. (closed circles) with BBCEC monolayers. [^125I]-p97 (1 mg/ml) was added to the upper side of the cell-covered filter. One representative experiment is shown (n=4); FIG. 11d, Preferential transport of p97 across the BBCEC monolayers. Apical-to-basal and basal-to-apical transport of [^125I]-p97 (25 nM) was measured for 2 hrs at 37° C. At the end of the experiment, [^125I]-p97 was assessed in the lower or upper chambers of each well by TCA precipitation (n=4).
FIG. 13 illustrates the transcytosis and accumulation of p97 and transferrin in BBCEC monolayers. FIG. 13a, Transcytosis experiments were performed at 37° C. (solid bars) or 4° C. (white bars). [^125I]-p97 or bovine [^125I]-holo-transferrin (1 mg/ml) was added to the upper side of the cell-covered filter. At the end of the experiment, radiolabelled proteins were measured in the lower chamber of each well by TCA precipitation (n=4). Controls were also performed at 37° C. with denatured [^125I]-p97 or bovine [^125I]-holo-transferrin boiled for 30 min (grey bars) (n=2); FIG. 13b, Biospecific interaction analysis was performed with native or boiled p97 for the indicated times. MAb L235 (5 μg) was immobilized on a sensor chip (SM5) using standard procedures incorporating NHS, EDC and ethanolamine. Native and boiled p97 (5 to 30 min) diluted at 1 mg/ml in Ringer/Hepes was cooled and injected into the BIAcore. The surface plasmon resonance response obtained for native p97 and boiled p97 was plotted (in relative units (RU)) as a function of time; FIG. 13c, The accumulation of both proteins into BBEC cells were also measured. Briefly, after incubation at 37° C. (solid bars) or 4° C. (white bars) with either [^125I]-protein, cells were washed four times with cold PBS. Accumulation of both denatured proteins (grey bars) was also measured at 37° C. Filters were then removed, and the radioactivity associated with the cells was quantified (n=3).
FIG. 14 illustrates the stability of p97 and integrity of the BBCEC monolayers following p97 transcytosis. FIG. 14a, Transcytosis experiments were performed at 37° C. and 4° C. by adding p97 (1 mg/ml) to the upper compartment. At the end of the experiment, 50 μl from each lower chamber was used for SDS-polyacrylamide gel electrophoresis. After electrophoresis, the gels were stained with Coomassie Blue. A standard curve was also made with known amounts of recombinant p97 (0-2 μg); FIG. 14b. The gels were dried and scanned to quantify the amount of intact p97 that crossed the BBCEC monolayers at 37° C. and 4° C. (n=3); FIG. 14c, Effect of p97 on sucrose permeability of BBCE cell monolayers co-cultured with astrocytes. […]

LRP1B = assay: RT-PCR after p97 and RAP treatments in U-87 cells: LRP1B; format: cell-based, human; settings: RT-PCR
Experimental: FIG. 34. Effect of p97 and RAP treatments in U-87 cells. A. Cells (2×10^5) were plated onto six-multiwell microplates and grown at 37° C. under 5% CO2 with optimal culture medium supplemented with serum for 4 days. Treatment was performed in serum free medium for 72 hours. RNA isolation and RT-PCR were performed as described in the Examples. B. LRP/LRP1B was immunodetected in cells lysates as described in the Examples. […] (N=2 for p97 treatment), (n=1 for RAP treatment)
FIG. 35. Effect of p97 and RAP treatments in U-87 cells (RT-PCR). Cells (2×10^5) were plated onto six-multiwell microplates and grown at 37° C. under 5% CO2 with optimal culture medium supplemented with serum for 4 days. Treatment was performed in serum free medium for 72 hours. RNA isolation and RT-PCR were performed as described in the Examples. The amplified PCR products were electrophoresed on a 2% agarose gel and visualized under ultraviolet light. (n=2 for p97), (n=1 for RAP)
RNA extraction. Cells in six-wells plate or in 75 cm^2 plastic tissue culture flasks were grown at 37° C. under 5% CO2 with optimal culture medium to 80-90% confluence. Total cellular RNA was preserved in Trizol (Gibco BRL, Burlington, ON). The solution are frozen at −80° C. until extraction. The solution was defroze and mixed with 5:1 chloroform for 3 minutes at room temperature. The suspension was centrifugated at 12000 g at 4° C. […]

LRP = LRP (Homo sapiens, UniProt Q07954); settings: Tables 1-3; cited from earlier work
VLDL-R = VLDL-R (Homo sapiens, UniProt P98155); settings: Tables 1-3; cited from earlier work
Megalin = Megalin (Homo sapiens, UniProt P98164); settings: Tables 1-3; cited from earlier work
Chain of Megalin (P98164 26-4655, species assumed): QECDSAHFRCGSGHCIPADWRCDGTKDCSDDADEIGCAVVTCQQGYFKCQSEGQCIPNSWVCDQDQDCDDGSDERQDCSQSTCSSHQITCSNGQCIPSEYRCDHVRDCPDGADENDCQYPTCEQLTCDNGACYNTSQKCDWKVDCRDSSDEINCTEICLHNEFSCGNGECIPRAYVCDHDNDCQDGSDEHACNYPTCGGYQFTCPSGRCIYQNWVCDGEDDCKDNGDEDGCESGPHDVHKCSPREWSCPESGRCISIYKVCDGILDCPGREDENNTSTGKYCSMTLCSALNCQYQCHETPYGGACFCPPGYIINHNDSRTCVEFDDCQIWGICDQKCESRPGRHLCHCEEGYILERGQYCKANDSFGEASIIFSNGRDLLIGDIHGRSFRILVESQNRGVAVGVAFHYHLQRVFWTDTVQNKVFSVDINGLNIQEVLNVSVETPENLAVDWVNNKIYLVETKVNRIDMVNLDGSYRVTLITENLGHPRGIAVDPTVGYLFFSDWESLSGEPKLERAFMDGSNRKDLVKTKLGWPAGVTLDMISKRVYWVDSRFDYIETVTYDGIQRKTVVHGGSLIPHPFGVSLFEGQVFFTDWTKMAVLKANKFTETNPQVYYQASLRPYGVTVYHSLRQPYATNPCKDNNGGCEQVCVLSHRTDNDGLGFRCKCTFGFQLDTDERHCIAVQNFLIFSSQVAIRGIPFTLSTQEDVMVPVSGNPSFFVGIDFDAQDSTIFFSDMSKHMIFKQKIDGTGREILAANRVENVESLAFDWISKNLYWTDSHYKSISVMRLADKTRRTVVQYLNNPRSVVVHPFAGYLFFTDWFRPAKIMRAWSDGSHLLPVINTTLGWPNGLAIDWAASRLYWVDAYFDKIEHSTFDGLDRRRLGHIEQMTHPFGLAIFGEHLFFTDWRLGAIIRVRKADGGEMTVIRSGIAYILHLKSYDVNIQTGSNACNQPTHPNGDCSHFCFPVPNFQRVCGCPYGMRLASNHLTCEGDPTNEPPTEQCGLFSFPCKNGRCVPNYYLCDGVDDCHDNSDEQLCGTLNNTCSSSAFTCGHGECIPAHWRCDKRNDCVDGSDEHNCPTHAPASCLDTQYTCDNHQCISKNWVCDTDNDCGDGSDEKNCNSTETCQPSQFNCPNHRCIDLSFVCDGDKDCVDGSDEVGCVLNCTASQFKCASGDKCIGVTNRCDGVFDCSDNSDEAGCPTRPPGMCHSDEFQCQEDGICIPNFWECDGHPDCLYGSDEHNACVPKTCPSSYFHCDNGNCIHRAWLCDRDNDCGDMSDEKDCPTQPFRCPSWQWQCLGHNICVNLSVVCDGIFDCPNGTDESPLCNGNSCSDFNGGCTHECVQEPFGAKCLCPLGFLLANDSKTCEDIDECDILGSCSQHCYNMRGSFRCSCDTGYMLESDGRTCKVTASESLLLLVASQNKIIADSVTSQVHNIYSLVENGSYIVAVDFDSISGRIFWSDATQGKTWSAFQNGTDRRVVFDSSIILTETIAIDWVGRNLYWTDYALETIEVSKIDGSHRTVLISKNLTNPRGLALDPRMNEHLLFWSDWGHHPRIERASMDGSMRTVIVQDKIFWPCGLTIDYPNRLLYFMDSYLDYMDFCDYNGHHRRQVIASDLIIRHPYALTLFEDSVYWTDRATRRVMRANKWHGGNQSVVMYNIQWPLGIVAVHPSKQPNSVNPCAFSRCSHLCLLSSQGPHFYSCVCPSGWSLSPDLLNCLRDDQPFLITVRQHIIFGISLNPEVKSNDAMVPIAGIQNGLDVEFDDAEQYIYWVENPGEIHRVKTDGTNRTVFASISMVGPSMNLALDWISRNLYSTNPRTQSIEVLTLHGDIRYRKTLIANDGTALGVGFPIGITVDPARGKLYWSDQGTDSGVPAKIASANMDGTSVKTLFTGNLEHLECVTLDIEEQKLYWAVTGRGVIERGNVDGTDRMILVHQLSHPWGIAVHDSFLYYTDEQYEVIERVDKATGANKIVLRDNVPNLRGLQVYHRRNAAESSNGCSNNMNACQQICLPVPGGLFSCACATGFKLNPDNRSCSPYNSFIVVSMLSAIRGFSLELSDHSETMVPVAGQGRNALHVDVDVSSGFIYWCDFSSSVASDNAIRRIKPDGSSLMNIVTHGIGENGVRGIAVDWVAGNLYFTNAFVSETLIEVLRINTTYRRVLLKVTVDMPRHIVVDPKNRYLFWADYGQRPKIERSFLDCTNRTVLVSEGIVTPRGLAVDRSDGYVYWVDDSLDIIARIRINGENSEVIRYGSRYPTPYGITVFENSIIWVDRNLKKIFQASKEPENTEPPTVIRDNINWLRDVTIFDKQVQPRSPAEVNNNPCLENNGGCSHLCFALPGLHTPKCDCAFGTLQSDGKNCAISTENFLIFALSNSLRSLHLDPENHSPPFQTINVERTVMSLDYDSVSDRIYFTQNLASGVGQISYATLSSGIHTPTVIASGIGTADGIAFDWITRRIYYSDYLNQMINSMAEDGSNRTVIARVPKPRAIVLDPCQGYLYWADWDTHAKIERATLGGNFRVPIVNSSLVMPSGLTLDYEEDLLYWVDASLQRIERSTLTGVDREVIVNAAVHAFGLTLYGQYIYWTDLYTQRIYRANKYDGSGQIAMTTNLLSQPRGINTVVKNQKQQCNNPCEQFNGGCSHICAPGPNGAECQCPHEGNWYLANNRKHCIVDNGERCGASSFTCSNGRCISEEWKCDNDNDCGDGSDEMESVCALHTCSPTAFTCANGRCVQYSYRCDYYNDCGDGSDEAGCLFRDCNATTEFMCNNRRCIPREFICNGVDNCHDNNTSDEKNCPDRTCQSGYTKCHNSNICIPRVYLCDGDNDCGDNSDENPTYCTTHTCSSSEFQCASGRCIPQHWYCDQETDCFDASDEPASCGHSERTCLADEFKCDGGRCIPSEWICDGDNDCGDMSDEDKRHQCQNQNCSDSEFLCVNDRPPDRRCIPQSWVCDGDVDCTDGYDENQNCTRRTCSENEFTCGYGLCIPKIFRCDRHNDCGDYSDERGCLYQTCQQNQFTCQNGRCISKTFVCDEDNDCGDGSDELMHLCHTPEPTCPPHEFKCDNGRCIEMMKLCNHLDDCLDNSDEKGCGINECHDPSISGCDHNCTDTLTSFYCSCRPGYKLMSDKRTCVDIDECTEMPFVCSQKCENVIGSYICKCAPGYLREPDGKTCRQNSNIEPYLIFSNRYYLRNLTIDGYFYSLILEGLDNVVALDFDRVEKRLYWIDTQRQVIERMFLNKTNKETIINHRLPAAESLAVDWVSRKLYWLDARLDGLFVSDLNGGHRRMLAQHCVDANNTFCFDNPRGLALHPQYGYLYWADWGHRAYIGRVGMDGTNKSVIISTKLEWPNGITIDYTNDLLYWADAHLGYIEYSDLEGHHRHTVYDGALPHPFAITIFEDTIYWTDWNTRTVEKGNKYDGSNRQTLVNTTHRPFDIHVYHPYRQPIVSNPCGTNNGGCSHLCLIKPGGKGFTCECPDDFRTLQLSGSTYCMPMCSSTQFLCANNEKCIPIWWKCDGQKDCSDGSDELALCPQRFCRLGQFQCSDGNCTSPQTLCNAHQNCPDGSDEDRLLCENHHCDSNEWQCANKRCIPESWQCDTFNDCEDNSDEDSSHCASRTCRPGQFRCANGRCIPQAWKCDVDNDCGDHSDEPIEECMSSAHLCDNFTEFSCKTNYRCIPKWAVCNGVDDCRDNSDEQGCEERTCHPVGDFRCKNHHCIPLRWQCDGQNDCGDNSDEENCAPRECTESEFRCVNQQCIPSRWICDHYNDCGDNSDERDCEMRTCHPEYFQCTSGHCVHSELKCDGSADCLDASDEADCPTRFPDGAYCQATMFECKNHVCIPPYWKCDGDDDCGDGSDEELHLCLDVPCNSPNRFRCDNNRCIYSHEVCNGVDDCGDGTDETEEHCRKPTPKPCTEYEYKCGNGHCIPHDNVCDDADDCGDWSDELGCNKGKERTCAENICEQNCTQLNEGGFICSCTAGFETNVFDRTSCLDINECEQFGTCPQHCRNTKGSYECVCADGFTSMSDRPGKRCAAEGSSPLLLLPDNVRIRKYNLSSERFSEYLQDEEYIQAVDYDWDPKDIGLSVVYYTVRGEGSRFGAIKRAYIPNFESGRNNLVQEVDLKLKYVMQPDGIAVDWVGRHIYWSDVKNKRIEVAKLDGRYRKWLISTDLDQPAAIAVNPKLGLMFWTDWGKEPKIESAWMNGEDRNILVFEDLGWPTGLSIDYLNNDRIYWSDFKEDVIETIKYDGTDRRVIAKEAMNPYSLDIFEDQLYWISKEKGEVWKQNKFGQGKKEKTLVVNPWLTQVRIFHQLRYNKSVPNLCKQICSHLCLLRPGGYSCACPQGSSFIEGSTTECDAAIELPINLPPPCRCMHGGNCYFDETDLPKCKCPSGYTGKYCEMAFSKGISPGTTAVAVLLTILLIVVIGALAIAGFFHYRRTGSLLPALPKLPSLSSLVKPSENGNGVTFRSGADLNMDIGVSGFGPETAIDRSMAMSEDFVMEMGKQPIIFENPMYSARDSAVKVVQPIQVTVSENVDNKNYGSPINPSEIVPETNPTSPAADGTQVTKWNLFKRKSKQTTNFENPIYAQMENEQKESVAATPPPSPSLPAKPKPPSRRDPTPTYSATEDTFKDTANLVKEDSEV

LDL-R = LDL-R (Homo sapiens, UniProt P01130); settings: Tables 1-3; cited from earlier work

RAP: receptor-associated protein, a protein chaperone that regulates LRP; polypeptide inhibitor of the LDL-Receptor family
Effect on transcytosis of p97 (BBCEC monolayers; RAP 25 micrograms/ml (FIG. 10c)): significantly inhibited | Inhibition of p97 transcytosis by LRP ligands (BBCEC monolayers; RAP (0.6 μM), BSA (5 μM), 2 h at 37° C. (FIG. 17A)): inhibition | Reduction of the initial rate of [125I]-p97 transport across BBCEC monolayers (BBCEC monolayers; recombinant RAP 25 μg/ml (FIG. 16b)): more than 50% | Effect of RAP on the p97 effect on receptor expression (LRP1B): appears to antagonize the effect of p97 | Binding to LRP (LRP): Yes | Binding to VLDL-R (VLDL-R): Yes | Binding to Megalin (Megalin): Yes | Binding to LDL-R (LDL-R): Yes
